The source of these data is paper PMC12272874, “The common homocystinuria-associated P1173L variant of human methionine synthase impairs reductive methylation” (The Journal of Biological Chemistry, 2025).

Assay [1] deals with T1, Human methionine synthase (MTR), wild-type, full-length recombinant (human, UniProt Q99707 1-1265).
T1 construct: Methionine synthase (MTR), human, full length, 140.5 kDa; codon-optimised synthetic gene in pET-28 between BamH1 and Xho1, thrombin cleavage site at the N-terminus; Monomer fraction of the size exclusion column was used; Loaded with cob(II)alamin (native gel, stopped-flow, EPR) or MeCbl (native gel with substrates); also called wild-type MTR; WT; source: E. coli BL21 (DE3), co-expressed with …
T1 sequence (Q99707 whole entry): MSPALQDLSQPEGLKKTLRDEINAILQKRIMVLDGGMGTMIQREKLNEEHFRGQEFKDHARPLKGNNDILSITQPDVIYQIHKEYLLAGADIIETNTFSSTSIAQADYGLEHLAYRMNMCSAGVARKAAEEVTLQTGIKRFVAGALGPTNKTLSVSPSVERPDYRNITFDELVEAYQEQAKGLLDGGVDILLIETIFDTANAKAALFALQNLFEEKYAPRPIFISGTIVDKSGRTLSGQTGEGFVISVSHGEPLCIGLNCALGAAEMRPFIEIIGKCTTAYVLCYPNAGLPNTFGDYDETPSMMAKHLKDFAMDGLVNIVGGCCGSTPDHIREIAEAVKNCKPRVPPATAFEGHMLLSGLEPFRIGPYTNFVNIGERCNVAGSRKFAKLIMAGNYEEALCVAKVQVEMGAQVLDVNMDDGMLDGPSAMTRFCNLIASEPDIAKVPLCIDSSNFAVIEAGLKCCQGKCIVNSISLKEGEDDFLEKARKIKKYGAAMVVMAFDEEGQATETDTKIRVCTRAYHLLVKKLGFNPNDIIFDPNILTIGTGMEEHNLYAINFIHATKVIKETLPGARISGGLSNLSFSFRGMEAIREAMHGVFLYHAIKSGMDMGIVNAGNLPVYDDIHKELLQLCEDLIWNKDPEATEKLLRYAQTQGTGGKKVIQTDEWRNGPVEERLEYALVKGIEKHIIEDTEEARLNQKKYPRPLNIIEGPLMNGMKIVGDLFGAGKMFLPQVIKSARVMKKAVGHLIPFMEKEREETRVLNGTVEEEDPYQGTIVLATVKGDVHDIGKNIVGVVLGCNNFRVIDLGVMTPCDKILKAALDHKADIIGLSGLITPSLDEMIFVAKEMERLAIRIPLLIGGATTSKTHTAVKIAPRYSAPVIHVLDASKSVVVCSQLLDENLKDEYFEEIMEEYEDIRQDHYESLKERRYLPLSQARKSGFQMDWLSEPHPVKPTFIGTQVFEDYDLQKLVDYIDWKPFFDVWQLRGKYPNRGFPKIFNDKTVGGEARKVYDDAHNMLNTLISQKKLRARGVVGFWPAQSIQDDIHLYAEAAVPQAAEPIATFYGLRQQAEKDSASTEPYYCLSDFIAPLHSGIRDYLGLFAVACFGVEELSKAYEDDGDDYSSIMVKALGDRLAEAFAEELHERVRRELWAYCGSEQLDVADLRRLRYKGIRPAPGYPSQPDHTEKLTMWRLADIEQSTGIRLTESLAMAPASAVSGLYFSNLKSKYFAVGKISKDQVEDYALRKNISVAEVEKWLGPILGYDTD
In words: native gel or EMSA; 15 μM cob(II)alamin-bound wild-type or P1173L MTR mixed with equimolar MTRR in Buffer C (100 mM HEPES, pH 7.4, 150 mM KCl, 10% glycerol), room temperature 5 min; 4–15% gradient gel, 4 °C. The following applies: both partners purified. In general terms: Mobility shift assays separate free from complexed probe on a gel.

For assay [2], the target named is T2, P1173L variant of human methionine synthase (MTR), full-length recombinant (human, UniProt Q99707 1-1265, P1173L).
T2 construct: Methionine synthase (MTR), human, full length, clinical missense variant P1173L made from the wild-type pET28-thrombin-MTR construct; Homocystinuria-associated variant that occurs in patients; Same expression and purification as the wild type; Loaded with cob(II)alamin or MeCbl; also called P1173L MTR; P→L; source: E. coli BL21 (DE3), co-expressed with GST-tagged ΔNMMADHC, purified (Ni-NTA, size …)
T2 sequence (Q99707 whole entry P1173L): as the sequence (Q99707 whole entry) above, with P1173L counted along it
The assay is described as above. The following applies: both partners purified.

B1: Human methionine synthase reductase (MTRR), full-length recombinant (enzyme, UniProt Q9UBK8-2 1-698, looked up)
chain: MRRFLLLYATQQGQAKAIAEEICEQAVVHGFSADLHCISESDKYDLKTETAPLVVVVSTTGTGDPPDTARKFVKEIQNQTLPVDFFAHLRYGLLGLGDSEYTYFCNGGKIIDKRLQELGARHFYDTGHADDCVGLELVVEPWIAGLWPALRKHFRSSRGQEEISGALPVASPASSRTDLVKSELLHIESQVELLRFDDSGRKDSEVLKQNAVNSNQSNVVIEDFESSLTRSVPPLSQASLNIPGLPPEYLQVHLQESLGQEESQVSVTSADPVFQVPISKAVQLTTNDAIKTTLLVELDISNTDFSYQPGDAFSVICPNSDSEVQSLLQRLQLEDKREHCVLLKIKADTKKKGATLPQHIPAGCSLQFIFTWCLEIRAIPKKAFLRALVDYTSDSAEKRRLQELCSKQGAADYSRFVRDACACLLDLLLAFPSCQPPLSLLLEHLPKLQPRPYSCASSSLFHPGKLHFVFNIVEFLSTATTEVLRKGVCTGWLALLVASVLQPNIHASHEDSGKALAPKISISPRTTNSFHLPDDPSIPIIMVGPGTGIAPFIGFLQHREKLQEQHPDGNFGAMWLFFGCRHKDRDYLFRKELRHFLKHGILTHLKVSFSRDAPVGEEEAPAKYVQDNIQLHGQQVARILLQENGHIYVCGDAKNMAKDVHDALVQIISKEVGVEKLEAMKTLATLKEEKRYLQDIWS
notes: Methionine synthase reductase (MTRR), human, full length; purified by the same protocol as ΔCMTRR; source: E. coli BL21(DE3), purified (Glutathione Sepharose 4B, thrombin cleavage, size exclusion chromatography); not shown: GST, N-terminal, cleaved
Take B1: the binding result in assay [1] and in assay [2] was “binds” throughout.
